Reference: paper PMC8241838 (2021)

Legend:
Assay in all cases: FACS
[1] = biological target: α6β1 integrin on Expi293F cells, α6 E221A (human, UniProt P05556 21-798)
[2] = biological target: α6β1 integrin on Expi293F cells, α6 R157A (human, UniProt P05556 21-798)
[3] = biological target: α6β1 integrin on Expi293F cells, α6 D205A (human, UniProt P05556 21-798)
[4] = biological target: α6β1 integrin on Expi293F cells, α6 E219A (human, UniProt P05556 21-798)
[5] = biological target: α6β1 integrin on Expi293F cells, α6 D153A (human, UniProt P05556 21-798)
[6] = biological target: human α6β1 integrin transiently expressed on Expi293F cells, wild type (human, UniProt P05556 21-798)
[7] = biological target: α6β1 integrin on Expi293F cells, α6 X1-ΔC (human, UniProt P05556 21-798)
α6β1 integrin on Expi293F cells, α6 X1-ΔC, sequence (P05556 whole entry, looked up, stated change not applied): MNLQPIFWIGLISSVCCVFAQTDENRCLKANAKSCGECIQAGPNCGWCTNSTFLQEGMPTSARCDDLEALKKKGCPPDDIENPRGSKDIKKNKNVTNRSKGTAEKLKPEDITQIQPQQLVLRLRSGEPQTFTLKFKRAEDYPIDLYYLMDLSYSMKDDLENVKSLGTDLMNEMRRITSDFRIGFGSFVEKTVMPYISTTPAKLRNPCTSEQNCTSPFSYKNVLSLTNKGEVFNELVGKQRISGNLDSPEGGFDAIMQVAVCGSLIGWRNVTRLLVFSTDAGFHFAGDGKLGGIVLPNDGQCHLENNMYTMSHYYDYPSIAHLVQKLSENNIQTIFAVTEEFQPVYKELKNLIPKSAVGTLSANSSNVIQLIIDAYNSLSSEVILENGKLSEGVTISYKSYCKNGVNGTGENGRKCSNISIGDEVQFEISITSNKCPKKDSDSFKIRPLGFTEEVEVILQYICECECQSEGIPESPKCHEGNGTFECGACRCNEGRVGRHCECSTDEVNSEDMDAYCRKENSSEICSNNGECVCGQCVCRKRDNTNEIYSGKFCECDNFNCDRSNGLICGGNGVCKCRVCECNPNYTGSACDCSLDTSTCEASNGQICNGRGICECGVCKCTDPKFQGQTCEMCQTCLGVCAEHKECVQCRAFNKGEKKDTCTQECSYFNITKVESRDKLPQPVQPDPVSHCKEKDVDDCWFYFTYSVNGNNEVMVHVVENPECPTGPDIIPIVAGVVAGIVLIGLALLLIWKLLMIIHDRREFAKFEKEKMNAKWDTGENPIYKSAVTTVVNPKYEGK

human α6β1 integrin transiently expressed on Expi293F cells, wild type, sequence (chain, as listed by the source, chain 1 of 2): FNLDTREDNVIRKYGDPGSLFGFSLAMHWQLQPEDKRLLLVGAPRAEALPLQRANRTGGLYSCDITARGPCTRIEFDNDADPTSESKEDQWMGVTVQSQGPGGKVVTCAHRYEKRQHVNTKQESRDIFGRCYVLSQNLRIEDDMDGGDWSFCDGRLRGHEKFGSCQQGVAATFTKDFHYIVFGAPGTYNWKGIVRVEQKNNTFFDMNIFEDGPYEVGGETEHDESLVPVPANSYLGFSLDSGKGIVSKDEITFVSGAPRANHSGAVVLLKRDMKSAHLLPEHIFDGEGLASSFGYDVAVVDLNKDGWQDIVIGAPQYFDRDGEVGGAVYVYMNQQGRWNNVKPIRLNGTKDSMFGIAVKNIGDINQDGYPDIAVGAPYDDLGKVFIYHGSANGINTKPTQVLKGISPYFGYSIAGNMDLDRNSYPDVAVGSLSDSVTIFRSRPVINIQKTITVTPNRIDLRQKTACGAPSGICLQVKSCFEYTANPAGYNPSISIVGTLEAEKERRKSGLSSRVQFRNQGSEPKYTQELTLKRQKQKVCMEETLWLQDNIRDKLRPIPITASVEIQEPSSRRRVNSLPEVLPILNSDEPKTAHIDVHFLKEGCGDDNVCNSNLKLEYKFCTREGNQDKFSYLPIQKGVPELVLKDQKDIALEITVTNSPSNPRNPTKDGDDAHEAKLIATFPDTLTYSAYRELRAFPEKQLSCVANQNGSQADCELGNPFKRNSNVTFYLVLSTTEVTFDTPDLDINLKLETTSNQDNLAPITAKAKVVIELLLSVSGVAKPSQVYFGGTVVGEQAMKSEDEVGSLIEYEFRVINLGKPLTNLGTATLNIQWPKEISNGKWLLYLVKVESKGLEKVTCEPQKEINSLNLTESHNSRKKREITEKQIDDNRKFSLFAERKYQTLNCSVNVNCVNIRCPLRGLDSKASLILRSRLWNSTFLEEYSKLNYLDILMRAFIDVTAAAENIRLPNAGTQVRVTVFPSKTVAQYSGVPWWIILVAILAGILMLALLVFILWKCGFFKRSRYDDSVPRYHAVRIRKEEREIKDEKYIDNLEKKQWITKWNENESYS
human α6β1 integrin transiently expressed on Expi293F cells, wild type, sequence (P05556 21-798, chain 2 of 2): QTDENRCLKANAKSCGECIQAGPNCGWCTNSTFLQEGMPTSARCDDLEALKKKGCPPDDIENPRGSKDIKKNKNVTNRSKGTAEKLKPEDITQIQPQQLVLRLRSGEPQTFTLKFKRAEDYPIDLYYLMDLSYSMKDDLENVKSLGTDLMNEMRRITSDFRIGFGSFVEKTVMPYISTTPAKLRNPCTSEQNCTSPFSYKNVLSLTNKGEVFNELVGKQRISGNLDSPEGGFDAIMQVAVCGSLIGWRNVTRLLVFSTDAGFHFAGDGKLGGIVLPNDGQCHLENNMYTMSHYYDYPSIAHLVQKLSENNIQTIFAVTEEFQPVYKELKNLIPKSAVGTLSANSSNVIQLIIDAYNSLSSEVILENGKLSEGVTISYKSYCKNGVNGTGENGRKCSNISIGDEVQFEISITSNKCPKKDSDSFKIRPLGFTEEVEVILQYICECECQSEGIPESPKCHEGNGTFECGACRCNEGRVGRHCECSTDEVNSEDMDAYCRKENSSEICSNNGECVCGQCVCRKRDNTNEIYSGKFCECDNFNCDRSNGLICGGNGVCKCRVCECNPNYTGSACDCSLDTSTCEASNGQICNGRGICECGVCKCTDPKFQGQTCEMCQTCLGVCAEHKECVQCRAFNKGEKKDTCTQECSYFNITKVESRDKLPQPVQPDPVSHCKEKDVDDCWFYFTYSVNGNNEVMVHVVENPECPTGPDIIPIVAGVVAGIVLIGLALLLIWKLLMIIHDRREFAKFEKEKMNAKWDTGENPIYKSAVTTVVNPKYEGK
α6β1 integrin on Expi293F cells, α6 D153A, sequence (chain, as listed by the source D153A, chain 1 of 2): as the sequence (chain, as listed by the source, chain 1 of 2) above, with D153A counted along it
α6β1 integrin on Expi293F cells, α6 D153A, sequence (P05556 21-798, chain 2 of 2): as the sequence (P05556 21-798, chain 2 of 2) above
α6β1 integrin on Expi293F cells, α6 E219A, sequence (chain, as listed by the source E219A, chain 1 of 2): as the sequence (chain, as listed by the source, chain 1 of 2) above, with E219A counted along it
α6β1 integrin on Expi293F cells, α6 E219A, sequence (P05556 21-798, chain 2 of 2): as the sequence (P05556 21-798, chain 2 of 2) above
α6β1 integrin on Expi293F cells, α6 R157A, sequence (chain, as listed by the source R157A, chain 1 of 2): as the sequence (chain, as listed by the source, chain 1 of 2) above, with R157A counted along it
α6β1 integrin on Expi293F cells, α6 R157A, sequence (P05556 21-798, chain 2 of 2): as the sequence (P05556 21-798, chain 2 of 2) above
α6β1 integrin on Expi293F cells, α6 D205A, sequence (chain, as listed by the source D205A, chain 1 of 2): as the sequence (chain, as listed by the source, chain 1 of 2) above, with D205A counted along it
α6β1 integrin on Expi293F cells, α6 D205A, sequence (P05556 21-798, chain 2 of 2): as the sequence (P05556 21-798, chain 2 of 2) above
α6β1 integrin on Expi293F cells, α6 E221A, sequence (chain, as listed by the source E221A, chain 1 of 2): as the sequence (chain, as listed by the source, chain 1 of 2) above, with E221A counted along it
α6β1 integrin on Expi293F cells, α6 E221A, sequence (P05556 21-798, chain 2 of 2): as the sequence (P05556 21-798, chain 2 of 2) above

B1: trimeric fusion protein PA-sfGFP-tLM511 (complex)
chain 1: ENVERWQGQYEGLRGQDLGQAVLDAGHSVSTLEKTLPQLLAKLSILENRGVHNASLALSASIGRVRELIAQARGAASKVKVPMKFNGRSGVQLRTPRDLADLAAYTALKFYLQGPEPEPGQGTEDRFVMYMGSRQATGDYMGVSLRDKKVHWVYQLGEAGPAVLSIDEDIGEQFAAVSLDRTLQFGHMSVTVERQMIQETKGDTVAPGAEGLLNLRPDDFVFYVGGYPSTFTPPPLLRFPGYRGCIEMDTLNEEVVSLYNFERTFQLDTAVDRPCARSKSTGDPWLTDGSYLDGTGFARISFDSQISTTKRFEQELRLVSYSGVLFFLKQQSQFLCLAVQEGSLVLLYDFGAGLKKAVPLQPPPPLTSASKAIQVFLLGGSRKRVLVRVERATVYSVEQDNDLELADAYYLGGVPPDQLPPSLRRLFPTGGSVRGCVKGIKALGKYVDLKRLNTTGVSAGCTADLLVGRAMTFHGHGFLRLALSNVAPLTGNVYSGFGFHSAQDSALLYYRASPDGLCQVSLQQGRVSLQLLRTEVKTQAGFADGAPHYVAFYSNATGVWLYVDDQLQQMKPHRGPPPELQPQPEGPPRLLLGGLPESGTIYNFSGCISNVFVQRLLGPQRVFDLQQNLGSVNVSTGCAPALQAQTPGLGPRGLQATARKASRRSRQPARHPA
chain 2: not shown
chain 3: DTVDLNKLNEIEGTLNKAKDEMKVSDLDRKVSDLENEAKKQEAAIMDYNRDIEEIMKDIRNLEDIRKTLPSGCFNTPSIEKP
modifications: Mn2+; A cytoplasmic form assumed
B1 gave a Kd [1] of 32.5 nM, a Kd [2] of 28.8 nM and a Kd [3] of 60.1 nM. It also gave a Kd [4] of 134 nM and a Kd [5] of 45.2 nM.

B2: trimeric fusion protein PA-sfGFP-tLM511 (complex)
chain 1: B1 chain 1
chain 2: not shown
chain 3: B1 chain 3
modifications: assayed with 0.5 mM Mn2+; X1 variant without the 39-residue X2 insert (P23229 displayed = X1X2A; mature 988 = 1050 gives offset 62 after X2); A/B cytoplasmic form not given, A taken; alpha6 may be furin-cleaved; signal peptides removed
B2 showed a Kd [6] of 12.5 nM.

B3: trimeric fusion protein PA-sfGFP-tLM511 (complex)
chain 1: B1 chain 1
chain 2: not shown
chain 3: B1 chain 3
B3 gave a Kd [7] of 127 nM.
